The values below come from patent CN110003338A (BEIJING MIANYI FANGZHOU MEDICINE TECH CO LTD, dated 2019).

The target in this test is T1, 人OX40 (expressed on cells: transfected 293T cells; HEK::OX40 100B5 cells) (human, UniProt P43489 29-277).
T1 construct: whole, on cells; also called hOX40
T1 sequence (looked up): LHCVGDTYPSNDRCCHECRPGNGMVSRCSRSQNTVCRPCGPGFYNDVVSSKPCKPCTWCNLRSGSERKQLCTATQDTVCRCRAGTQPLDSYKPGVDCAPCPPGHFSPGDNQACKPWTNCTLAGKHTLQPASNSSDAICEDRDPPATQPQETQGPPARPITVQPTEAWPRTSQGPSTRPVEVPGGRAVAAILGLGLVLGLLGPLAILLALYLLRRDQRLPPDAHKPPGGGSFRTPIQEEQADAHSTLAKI
The test can be described thus: Flow cytometry on 293T cells expressing human OX40, antibody 1 µg/mL final, APC anti-mouse IgG Fc. For orientation: In flow cytometry, cells or beads pass a laser one at a time.

B1: 抗OX40单克隆抗体4F2 (antibody, V domains shown)
VH: DVQLQESGPGLVKPSQSLSLTCSVTGYSITSGYNWNWIRQFPGNKLEWMGYISYDGSNNYNPSLKNRISITRDTSKNQFFLKLNSVTTEDTATYYCARQGSSGHFYYAMDYWGQGTSVTVSS
VL: DIVMTQAHKFMSTSVGDRVSITCKASQDVSSAVAWYQQKPGQSPKLLIYWASIRHTGVPDRFTGSGSGTDYTLTISSVQAEDLALYYCQQHYSTPWTFGGGTKLEIK
notes: Mouse hybridoma monoclonal antibody (Balb/c x SP2/0); Constant regions are mouse; it was detected with anti-mouse IgG Fc and mIgG1 served as isotype control
For the molecule B1, the binding result was “binds”.

B2: 抗OX40单克隆抗体6A6 (antibody, V domains shown)
VH: EVQLQQSGPELVKPGASVKISCKASGYSFTGYYMNWVKQSPEKSLEWIGEINPSTGGTTYNQKFKAKATLTVDKSSSTAYMQLKSLTSEDSAVYYCARSGLPYYDVDYWGQGTTLTVSS
VL: DIQMTQSPSSLSASLGERVSLTCRASQEISGYLSWLHQKPDGTIKRLIYAASTLDSGVPKRFSGSRSGSDYSLTISSLESEDFADYYCLQYASYPLTFGAGTNLELK
notes: Mouse hybridoma monoclonal antibody
Regarding B2, the binding result was “binds”.
